Results from a protein production outcome set (Wang et al. 2014).

Assay: label from the status in PepcDB records

| Sequence | protein production |
| --- | --- |
| MDEISTGMLLVILAVLLFLSAYFSGSETGMMSINRYRLRHLVQNNHPGAKRVQYLLDRPDRLIGLILIGNNLVNIGASAIATILCLRWFGDAGIVIATFGLTLIILIFSEVTPKTIAALHPERISFPSSLILMPLLKVMYPIVIGMNFITNSFMRLLGVNPKQSQMADALSSDELRTVVNEAGNLIPTSHQEMLVSILDLEKVTVEDVMVPRNEIVGIDISDDWKSIVKQLSNGQHTRVLLYRNEIDDAIGFLHARDIMRLMSKNQFTADKSILVRAARDSYFIPEGTPLNVQLLKFQRRKERIGLVVDEYGDIQGLVTLEDILEEIVGDFTTSMAPAPSESVTLETDGSFLVDGSANLRELNKEMNWDFPTDGPKTLSGLIIEQFGDIPDARLSLRLGGYPVELVEIGDTMIKQIRVFPELYQKPDNQTND | failed |
| MDEQSVESIAEVFRCFICMEKLRDARLCPHCSKLCCFSCIRRWLTEQRAQCPHCRAPLQLRELVNCRWAEEVTQQLDTLQLCSLTKHEENEKDKCENHHEKLSVFCWTCKKCICHQCALWGGMHGGHTFKPL | failed |
| MDERRFFRDVCAEWMEQYRLTVRESTLEKTQRIINIHVLPAFGDMVINNITPNVCQKVVNKWFLEAKSYKKWLNYASMIFDYALRAEYVGRNPCTLVTMPRVQEQAGEKLEHHHHHH | failed |
| MDEVNVIARITGVSRVRTFERDGREGRFISLDIMDATGSTTYTLWNNDVNLVEELGLKEGDAVKILWAQPRRRDDKVTLTHTSLTRVVPGLEHHHHHH | failed |
| MDFAHLDQQLRDSVLDLKLSNEERDELRQLGSELGQDQVRYMRNRAFDLVRELALADSVNVLPALKWLEQVIKTLDANSAPVRDMASAHFSPGEDCRRKIRDLCRQARISVDICVFTISDDQLSDEIRACHQRGVAVRVISDSEKQFDVGSDIAALREAGVPVRIDDTPFHMHHKFAVFDGRTLLNGSFNWTRSATTGNEENLLVIDHPQLVASYLKEFNELWSRYAPR | failed |
| MDFESNGAMMEYCKSTGRTYCAFSIQQSSKLLGTVVLELFTDIAPATCANFIKYIKDGYQGTPLHRIVPNGWVQGGDIVDGSGKGDPGFVLPDETYSVKHDAPGVLGMATGGQPHTANTQFYISLSPLPFLDGKRVAFGRVLNKQSLENLLALQTLPTFQNERPVPDVVIASCHVIYNPNS | failed |
| MDGAQPKTNFFERLIARLAREPDSAEDVLNLLRQAHEQEVFDADTLTRLEKVLDFAELEVRDAMITRSRMNVLKENDSIERITAYVIDTAHSRFPVIGEDKDEVLGILHAKDLLKYMFNPEQFHLKSVLRPAVFVPEGKSLTALLKEFREQRNHMAIVIDEYGGTSGLVTFEDIIEQIVGDIEDEFDEDESADNIHSVSAERWRIHAATEIEDINAFFGTEYGSEEADTIGGLVIQELGHLPVRGEKVLIGGLQFTVARADNRRLHTLMATRVK | failed |
| MDGASRENPGLAAAGGAVRDGNENWVGVFALNIEICSAPLAELWGLYYGLHIVWEQGITRLELEVDSKIVVGFLQTGIPDSHPLSFLLRLCYGFISRDWLVRISHVYREVNRLADGLANYAFSLPLGLYVFNSVPDSIASFVLEDARMLEEYRMKFWLLEDLGLRHCGNVKANGFHRVSAYPREKSHGRHRLYVLHY | failed |
| MDGDGSSFEQFIMPPSALDRLASLHIEYPMLFQLSNVSVEKTSHCGVLEFTADEGLVYLPYWMMQNMSLEEGDVMQVKNISLVKGTYIKLQPHTQDFLDISNPKAILETTLRSYSCLTTGDTIMVPYNNKQYYINVVEAKPSSAVSIIETDCEVDFAPPLDYKEPEKPQKLTPSNKRPLQVKEEEEPASKVPKFTPFTGSGKRLDGKAQTQTEPEDTKQQEKPTENGKDDEKLSVTTPRQISGKLVFGSNSKSAAKETAKVDDPKNIVQESSTKSDEAKFKVFTGKKYSLNG | failed |
| MDGRMDATTRMTLSVGALMFRMIWFPAPHWTHAARMTASTFRRYGFGLLSLVLLVLPSRLAAQDYEVPTVTDTYALQNARVVQAPGQVLESATVVVRDGVIDAVGPDAEVPYDARTIEADSLVVYAGFIDGLSHAGVEMPEGEDTDVEDPGNPPPDAAGIQPDRSVRPFLSPDESALQSLRKAGFTLGHVAPEGQMLPGASAHVFYGGETANDMVLEAGPTLFAQLQTADGYVYPATGMAVIAQMRQLYREAERRQQLEAAYERDPTGRPQPPQDPQHSALFSVLDGEQPLAFYADEALSLHRILALHQELDFPLVLAGLGESHELVDALQAVDAPLFLTLDLPEEPTRSTGQDTTTADTTSTPSRYYNPDLQVPSHETVAEEEENLELRHAMERQDYLETAATLHDAGLEFGFTTREADPGDVRGNLRTMIDQGLPEQTALAALTTRPAAQLGLDDRLGTVEAGKIANLVVTDGSYFAEDTKVTHVFVDGRLYDYSADGSDEGEVSGDVSAVLGTWSYTLDTPQGELSGEVTIEGDQSGLDGTFVGPQGDEQPLQSVSFDGTTLSFTVDSPQGGSVSVSVTVEGDTFDGSASTSGGSFPISGERTSGPNATQK | failed |
| MDGTEIAVSPRSLHSELMCPICLDMLKNTMTTKECLHRFCSDCIVTALRSGNKECPTCRKKLVSKRSLRPDPNFDALISKIYPSREEYEAHQDRVLIRLSRLHNQQALSSSIEEGLRMQAMHRAQRVRRPIPGSDQTTTMSGGEGEPGEGEGDGEDVSSDSAPDSAPGPAPKRPRGGGAGGSSVGTGGGGTGGVGGGAGSEDSGDRGGTLGGGTLGPPSPPGAPSPPEPGGEIELVFRPHPLLVEKGEYCQTRYVKTTGNATVDHLSKYLALRIALERRQQQEAGEPGGPGGGASDTGGPDGCGGEGGGAGGGDGPEEPALPSLEGVSEKQYTIYIAPGGGAFTTLNGSLTLELVNEKFWKVSRPLELCYAPTKDPK | failed |
| MDGTVTPSPITTAMPPVSALDAGTPTLPPEAPLAMPEQNLREGSLQVRHQRTSPPGIGVRRFYLIGGTFATTAIAVWVMLSVLWPDGISVLEGCLLGLFVLLFAWIAMSFASAVAGFVTVVARAGRKLGIDPEQPLPTLRSRTALLMPTYNEDPRRLLAGLQAIYESVAETGQLEHFDFFVLSDTTREHIGRAEELVYNALCDRVGGHGRIFYRRRADNAARKAGNVADWVRRFGGSYPQMLILDADSVMTGDTIVRLVAGMENNPDVGLIQTLPAVVNGQTLFARMQQFGGRVYGPIIAFGVAWWHGAESNYWGHNAIIRTQAFADHAGLPSLRGRKPFGGHVLSHDFVEAALMRRGGWAMHMVPYLQGSYEEGPPTLTDLLIRDRRWCQGNLQHAKVVGAKGLHWISRMHMLIGIGHYFTAPMWGLLMLIGIGIPLAGGDIDLAGDLPFSPARYWHGSSQGNAIWIFVCTMFVLLAPKLLGYIALLLNPRELRACGGAFRAAVSILLETVLAALMAPVVMYLQSRGVFEVLAGKDSGWDAQVRDDGKLSWPALLRSYGGLTVFGLFMGAVAYAVSPALAAWMGPVIVGMALSIPVVALTSLRRTGMALRRAGIFCIPEELDPPKVLVRASELRRAAALEPSLI | failed |
| MDGVFRLLLGRFIQRGTIIFTTAGGTTFTCGDGTGEQVHARLTSPLAQRRLLLDPELALGEIYMDGGLVMQQGSIADLLAVAMGQPDWTPRWAKLHGLVRYWIRTLHQFNPRSRSRNNVAHHYDLDGRLYALFLDSDKQYSCAYFETPDANLDDAQLAKKRHVAAKLLTTPGQRVLDIGSGWGGLGLYLAETCGADVTGVTLSREQLQAANTRAAERGLADRARFLLQDYRDVPGPFDRIVSVGMFEHVGVDHYDTYFRRCAELLKDDGVMLLHSIGRSEGPGFTNPWIAKYIFPGGYLPALSEVLPAIERAGLLVCDIEILRLHYAETLKAWRERFLAHREEAERLYDARFVRMWEFYLAASEMSFRKQNTMVFQIQLTRRQGVVPITRDYIAAEEKRLRGMEKSRTPRLQLAGE | failed |
| MDHVHKSTTTDEDERNSGRAIDRHNPIIKDGRRSFADDFIKLPTSAEDGEMSNKKLEIYKGRRSITGRRSTGGGGGGGAAALLKLITNDIGLARKSFSCVARPACDLIKTPVGSTRYLLGSDPDSITGSVDQDPAKTVEAEAPAGEDKTLTEKKTTCGDTDQVSCFVVSIMSGINVNKW | failed |
| MDHYLRWRKRQKLLADFGEFALSNDNLADILTEACRLVGNALGTQRANVLEIEPSKRSLFVRAGVGLDDGIVGKLRLPMREIASERFSPDGSPLDIIHDVHTEPQYDLAAFMEVAGVVALVNVPILLPGRTLYGLLQVESSEPREFSQDDVEFLRTYSTILGPVIDRLNKVRALRDAEERFRLIVEAAR | not failed |
| MDIAGYLSFFFASFTTLFIIIDPPGNLPIFIALTERFSDEYREKISKRATIIAFLILFITMVTGGKILDYFGVSISSLKIAGGILLFISSVDILLGGTRREAYKRRAEESIDVDSIAVFPLALPLYTGPGAITAGIVLYSQAGDVVMKLLVVLSAALVYSIVRLSHIYSAPIIRLLGRSGADIAARILAIFLAAIAVEFVFDGLAEKLVSMDL | failed |
| MDIKRYCPVTDSELPADHVYFKFRSEIEAAEAYLGLAISEGIKVRETREILDIIDTVYNSLSDPESKLNDFQEKRLNFTEEDWYDIKEKANNGNRWSLYMFLARSAVDSAVYWSYRMKETEEFKEIVKEEMISKLLKAGYVILRESLGEVRL | not failed |
| MDIKSETEQYKRKAEIEKHTKEPNKHRDEAVLQNRAGRHRDRAVIDHKSEERERESVQNVTEMSGIERSEGEWSPPVEGITDEELPSHSPMDDLGFALFASWGRKTERQRMGSPDIRIYIFNPIKKIIIMETRIRFGLEWKPSGFGS | failed |
| MDINIGTTHKVFHVLSKIGPAWIVMMADVDVASIITGLQSGAEFGFHMIFVMLILIPPLFIVQNAAGYLGIYSGMGVGEAIRQRYGRRLALLAAIPMASTDILSYIAEYSGIAIGLYMVGVSPYISVPVVFVIHNLIVLMRRYGRIESILMIVSVGLVLFIIVSVALMKPSWHSVILTGLNPIQPYGNHDFDIMIIANLGAIIMPFMIFYQAGASVQKSLLDQDIKISRNETAIGSIVSEVLMVMIVIAGTFIGGYATEPKMLAAALLPFGTYAYYITAAGFVTAGFLALIVISLASSWGIAEALGWKLYSGRRRGMHKAQMKGLTEERSDCDRRKFIYLYMGESIPAAAIALSFSAYLLPLVIDLMIVFVLVLAPVGVLLGLLVSDQKIMNGHRLSKRYMALFWFTLAIIEIAGLYSIITSI | failed |
| MDISLLSTTSDPEQLRALAIAMVQKVMAENAELQNRIRILEEQMKLARQQRFGKKCESLAGMQRSLFEEDVDADIAEISAHLDKLLPQTGDEEKTTTRPVRKPLPSPLPRAEKVIPPAEERCPDCDAPLHFIRDEVSEKLEYIPAQVVVNRYIRPQYSCPCCEKVFSGKMPAHILPKSAVEPSVIAQVVISKYTDHLPLYRQQHIFSRMGVELPVSTMADMVGVAGAALAPLAKLLRHELLTRDVIHADETSLRLLDTRKGGKSCSGWLWAYVSGERVSVNGAPY | failed |
| MDKALTNRVIILSFDCLSALDFPILQKLPHFQSLIKKGTVVEKVEPIYPSVTYPSHSTIVTGNYPNKHGVVSNTLLQPGRESPDWHWYRKSIKGTTLYDEAHKANLTTAALLWPVTGRANIDYNLPEIFPNRPWQNQVLVSLFSGSPLYQLDLNRRFGHIRNGLSQPELDDFVLASAVHTIQTKKPNVMFVHFTDLDTQRHYHGFESKETIAAIHRHDERLGQIIQALKDSDLYEESTIIALGDHSALSENKAIQLNVLFHQKGLISVNSKGNLVDWKVYCQSCDGSAYVYVKDKNDTDTIREVQLLLEELLQHKQNGIEFILHDEDAKECGADGNCLFMLEAREGYYFTENYTGDFIKEITEKDVTPSKKYTFGTHGYSPTKPNYETIFIAAGKGIKSGVTIPYMRLIDEGPTIARLLGLHLGETDGSIVEDLLQL | failed |
| MDKASRFDRMVKEKKNDELGLFEKYEETLAEIRKRIIKYKAKTVVDMGCGTGNLCGELSKEIEALGIDKSLEMLEGAKRKYKHIKFKIGSFSDKPFIGKWAGVVVTTYAFHGLNSEEKKEAIKNMIGYLKDDGRIIIGDYMFKNKAEKEECRNKLLSKKRQDLWEVIDGRYYTDLEELKDYVKSLGFKIISEHIVNFTWIVEIYK | failed |
